Laboratory results as given in patent US11156615B2 (priority 2015, dated 2021).

Columns and labels:
[1] = Thermostability: mid-point thermal denaturation temperature (Tm) from temperature-dependent fluorescence (Roche LightCycler); format: physicochemical; details: apo-protein
Procedure, shortened: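 Unfolding tracked by SYPRO binding to denatured protein, fluorescence at 488 nm/510 nm recorded on a LightCycler as temperature rose in 1 K steps. Tm taken as denaturation mid-point, for protein in solution or immobilized on Ni-NTA or NHS-agarose beads.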

[2] = Glucose binding: isothermal fluorescence titrations, ratiometric (appKd) and monochromatic (trueKd) fits; details: room temperature
Text: 2 For a single glucose-binding site, the fractional saturation is given by
[formula] where ^apoIλ2 and ^satIλ2 are the emission intensities of the monochromatic signal at wavelength λ2 of the ligand-free and ligand-bound protein, respectively.

[3] = Glucose-dependent fluorescence emission intensity spectra of conjugates (Nanodrop3300); format: biochemical; details: Nanodrop3300
Text: Semi-synthetic FRSs were engineered by site-specifically attaching thiol-reactive, environmentally sensitive fluorophores that respond to ligand-mediated conformational changes. Identification of FRS candidates that are useful for sensing applications comprises three steps: • 1. Cysteine scan. Mutant glucose-binding proteins containing single cysteines are constructed for site-specific attachment of thiol-reactive fluorophores. […] Candidate positions fall into three classes: endosteric, replacing a residue that contacts the ligand directly; peristeric, located at the rim of the binding site; allosteric (Marvin et al. 1997 Proc Natl Acad Sci USA, 94, 4366-71; Marvin 1998 J Am Chem Soc, 120, 7-11), located outside the binding site at sites that undergo local structural changes in concert with the hinge-bending motion. • 2. Fluorophore screening. Thiol-reactive, environmentally sensitive fluorophores are attached to each cysteine mutant prepared in step 1. • 3. Evaluation of the glucose-mediated change of all the fluorescent conjugates prepared in step 2. Responses to ligand binding in which there is both a change in fluorescence emission intensity and spectral shape was essential for chemometric applications, because such changes enable ratiometric measurements. Changes in spectral shape typically are accompanied by a shift in the wavelength of the emission intensity maxima. Three classes of fluorescent responses are possible: • i. No response. • ii. Monochromatic response (emission intensity increases or decreases without a change in spectral shape) • iii.

[4] = Galactose binding: isothermal fluorescence titrations of conjugates; details: for S, selectivity = trueKd(galactose)/trueKd(glucose): S > 1, selective for glucose; for Kd: read-out: Galactose trueKd, monochromatic titration curves, room temperature
[5] = read-out: Glucose appKd, Acrylodan conjugate, dichromatic ratiometry
[6] = read-out: Glucose appKd, Badan conjugate, dichromatic ratiometry
[7] = read-out: Glucose trueKd, Acrylodan conjugate, monochromatic titration curves
[8] = read-out: Glucose trueKd, Badan conjugate, monochromatic titration curves
[9] = Acrylodan conjugate of ttGGBP.17C mutant
[10] = Badan conjugate of ttGGBP.17C mutant

Molecule | Kd [2, 5] [mM] | Kd [2, 6] [mM] | Kd [2, 7] [mM] | Kd [2, 8] [mM] | S, selectivity = trueKd(galactose)/trueKd(glucose) ([4]; Acrylodan conjugate) | S, selectivity = trueKd(galactose)/trueKd(glucose) ([4]; Badan conjugate) | Kd ([4]; Acrylodan conjugate) [mM] | Kd ([4]; Badan conjugate) [mM] | apoTm ([1]; Badan conjugate) [K] | Type of fluorescence response to glucose [3, 9] | Type of fluorescence response to glucose [3, 10] | apoTm ([1]; Acrylodan conjugate) [K]
ttGGBP17C.24: affinity-tuning mutant, 17C background, SEQ ID NO: 82 (protein, ttGGBP17C.24 (affinity-tuning mutant, 17C background (Table 6) with signal peptide replaced with M and GGSHHHHHH at C-terminus)) MKQLNIGVAIYKFDDTCMTGVRNAMTAEAQGKAKLNMVDSQNSQPTQNDQVDLFITKKMNALAINPVDRTAAGTIIDKAKQANIPVVFFNREPLPEDMKKWDKVYYVGAKAEQSGILQGQIMADYWKAHPEADKNHDGVMQYVMLMGQPGHQDAILRTQYSIQTVKDAGIKVQELAKDYANWDRVTAHDKMAAWLSSFGDKIEAVFANNDDMALGAIEALKSAGYFTGNKYIPVVGVDATAPGIQAIKDGTLLGTVLNDRKNQAKATFNIAYELAQGITPTKDNIGYDITDGKYVWIPYKKITKDNISDAEQGGSHHHHHH | – | – | – | – | – | – | – | 29 | 344 | – | i (i, intensity increase only) | –
ttGGBP17C.4: affinity-tuning mutant, 17C background, SEQ ID NO: 69 (protein, ttGGBP17C.4 (affinity-tuning mutant, 17C background (Table 6) with signal peptide replaced with M and GGSHHHHHH at C-terminus)) MKQLNIGVAIYKFDDTCMTGVRNAMTAEAQGKAKLNMVDSQNSQPTQNDQVDLFITKKMNALAINPVDRTAAGTIIDKAKQANIPVVFFNREPLPEDMKKWDKVYYVGAKAEQSGILQGQIMADYWKAHPEADKNHDGVMQYVMLMGQPGQQDAILRTQYSIQTVKDAGIKVQELAKDYANWDRVTAHDKMAAWLSSFGDKIEAVFANNDDMALGAIEALKSAGYFTGNKYIPVVGVDATAPGIQAIKDGTLLGTVLNDAKNQAKATFNIAYELAQGITPTKDNIGYDITDGKYVWIPYKKITKDNISDAEQGGSHHHHHH | 50 | 16 | 48 | 6.4 | 0.29 | 2.2 | 14 | 14 | 347 | r(h) (r(h), ratiometric (hypsochromic shift)) | r(h) (r(h), ratiometric (hypsochromic shift)) | –
ttGGBP17C.11: affinity-tuning mutant, 17C background, SEQ ID NO: 76 (protein, ttGGBP17C.11 (affinity-tuning mutant, 17C background (Table 6) with signal peptide replaced with M and GGSHHHHHH at C-terminus)) MKQLNIGVAIYKFDDTCMTGVRNAMTAEAQGKAKLNMVDSQNSQPTQNDQVDLFITKKMNALAINPVDRTAAGTIIDKAKQANIPVVFFNREPLPEDMKKWDKVYYVGAKAEQSGILQGQIMADYWKAHPEADKNHDGVMQYVMLMGQPGHQDAILRTQYSIQTVKDAGIKVQELAKDYANWDRVTAHDKMAAWLSSFGDKIEAVFANNDDMALGAIEALKSAGYFTGNKYIPVVGVDAAAPGIQAIKDGTLLGTVLNDAKNQAKATFNIAYELAQGITPTKDNIGYDITDGKYVWIPYKKITKDNISDAEQGGSHHHHHH | 0.04 | – | 0.04 | – | – | – | – | – | – | d (d, intensity decrease only) | – | 348

Further lines, with some results ahead:

Kd [2, 5] [mM] | Kd [2, 6] [mM] | Kd [2, 7] [mM] | Kd [2, 8] [mM] | S, selectivity = trueKd(galactose)/trueKd(glucose) ([4]; Acrylodan conjugate) | S, selectivity = trueKd(galactose)/trueKd(glucose) ([4]; Badan conjugate) | Kd ([4]; Acrylodan conjugate) [mM] | Kd ([4]; Badan conjugate) [mM] | Molecule | apoTm ([1]; Badan conjugate) [K] | Type of fluorescence response to glucose [3, 9] | Type of fluorescence response to glucose [3, 10] | apoTm ([1]; Acrylodan conjugate) [K]
15 | 8.6 | 18 | 10.8 | 0.28 | 0.48 | 5 | 5.2 | ttGGBP17C.2: affinity-tuning mutant, 17C background, SEQ ID NO: 67 (protein, ttGGBP17C.2 (affinity-tuning mutant, 17C background (Table 6) with signal peptide replaced with M and GGSHHHHHH at C-terminus)) MKQLNIGVAIYKFDDTCMTGVRNAMTAEAQGKAKLNMVDSQNSQPTQNDQVDLFITKKMNALAINPVDPTAAGTIIDKAKQANIPVVFFNREPLPEDMKKWDKVYYVGAKAEQSGILQGQIMADYWKAHPEADKNHDGVMQYVMLMGQPGHPDAILRTQYSIQTVKDAGIKVQELAKDYANWDRVTAHDKMAAWLSSFGDKIEAVFANNDDMALGAIEALKSAGYFTGNKYIPVVGVDATAPGIQAIKDGTLLGTVLNDAKNQAKATFNIAYELAQGITPTKDNIGYDITDGKYVWIPYKKITKDNISDAEQGGSHHHHHH | 350 | d (d, intensity decrease only) | r(h) (r(h), ratiometric (hypsochromic shift)) | –
– | 12 | – | 15 | – | – | – | – | ttGGBP17C.22: affinity-tuning mutant, 17C background, SEQ ID NO: 80 (protein, ttGGBP17C.22 (affinity-tuning mutant, 17C background (Table 6) with signal peptide replaced with M and GGSHHHHHH at C-terminus)) MKQLNIGVAIYKFDDTCMTGVRNAMTAEAQGKAKLNMVDSQNSQPTQNDQVDLFITKKMNALAINPVDRTAAGTIIDKAKQANIPVVFFNREPLPEDMKKWDKVYYVGAKAEQSGILQGQIMADYWKAHPEADKNHDGVMQYVMLMGQPGHQDAILRTQYSIQTVKDAGIKVQELAKDYANWDRVTAHDKMAAWLSSFGDKIEAVFANNDDMALGAIEALKSAGYFTGNKYIPVVGVDATAPGIQAIKDGTLLGTVLNDNKNQAKATFNIAYELAQGITPTKDNIGYDITDGKYVWIPYKKITKDNISDAEQGGSHHHHHH | 343 | – | i (i, intensity increase only) | –
1.4 | 3.4 | – | 4.1 | – | – | 0.53 | 2.5 | ttGGBP17C.3: affinity-tuning mutant, 17C background, SEQ ID NO: 68 (protein, ttGGBP17C.3 (affinity-tuning mutant, 17C background (Table 6) with signal peptide replaced with M and GGSHHHHHH at C-terminus)) MKQLNIGVAIYKFDDNCMTGVRNAMTAEAQGKAKLNMVDSQNSQPTQNDQVDLFITKKMNALAINPVDRTAAGTIIDKAKQANIPVVFFNREPLPEDMKKWDKVYYVGAKAEQSGILQGQIMADYWKAHPEADKNHDGVMQYVMLMGQPGHQDAILRTQYSIQTVKDAGIKVQELAKDYANWDRVTAHDKMAAWLSSFGDKIEAVFANNDAMALGAIEALKSAGYFTGNKYIPVVGVDATAPGIQAIKDGTLLGTVLNDAKNQAKATFNIAYELAQGITPTKDNIGYDITDGKYVWIPYKKITKDNISDAEQGGSHHHHHH | 346 | d (d, intensity decrease only) | r(h) (r(h), ratiometric (hypsochromic shift)) | –
– | 3.3 | – | 3.6 | – | 1 | – | 3.6 | ttGGBP17C.6: affinity-tuning mutant, 17C background, SEQ ID NO: 71 (protein, ttGGBP17C.6 (affinity-tuning mutant, 17C background (Table 6) with signal peptide replaced with M and GGSHHHHHH at C-terminus)) MKQLNIGVAIYKFDETCMTGVRNAMTAEAQGKAKLNMVDSQNSQPTQNDQVDLFITKKMNALAINPVDRTAAGTIIDKAKQANIPVVFFNREPLPEDMKKWDKVYYVGAKAEQSGILQGQIMADYWKAHPEADKNHDGVMQYVMLMGQPGHQDAILRTQYSIQTVKDAGIKVQELAKDYANWDRVTAHDKMAAWLSSFGDKIEAVFANNDDMALGAIEALKSAGYFTGNKYIPVVGVDATAPGIQAIKDGTLLGTVLNDAKNQAKATFNIAYELAQGITPTKDNIGYDITDGKYVWIPYKKITKDNISDAEQGGSHHHHHH | 346 | – | r(h) (r(h), ratiometric (hypsochromic shift)) | –
